Legend:
[1] = system: T1, RPRAATF substrate of glycogen synthase kinase 3β
T1 sequence: RPRAATF

[2] = system: Thioredoxin (Trx) alone, expressed in E. coli from a pET32 vector [thioredoxin: P0AA25]
[3] = system: Trx-IRDBP-1 fusion protein (His6-tagged thioredoxin fusion of the 1503 bp coding region of the cDNA SEQ ID NO: 44)
[4] = system: E. coli-expressed NFκB p50
[5] = system: IRDBP-1 expressed from pCR IRDBP-1 in transfected COS 7 cells
Chain of IRDBP-1 expressed from pCR IRDBP-1 in transfected COS 7 cells (chain, as listed by the source): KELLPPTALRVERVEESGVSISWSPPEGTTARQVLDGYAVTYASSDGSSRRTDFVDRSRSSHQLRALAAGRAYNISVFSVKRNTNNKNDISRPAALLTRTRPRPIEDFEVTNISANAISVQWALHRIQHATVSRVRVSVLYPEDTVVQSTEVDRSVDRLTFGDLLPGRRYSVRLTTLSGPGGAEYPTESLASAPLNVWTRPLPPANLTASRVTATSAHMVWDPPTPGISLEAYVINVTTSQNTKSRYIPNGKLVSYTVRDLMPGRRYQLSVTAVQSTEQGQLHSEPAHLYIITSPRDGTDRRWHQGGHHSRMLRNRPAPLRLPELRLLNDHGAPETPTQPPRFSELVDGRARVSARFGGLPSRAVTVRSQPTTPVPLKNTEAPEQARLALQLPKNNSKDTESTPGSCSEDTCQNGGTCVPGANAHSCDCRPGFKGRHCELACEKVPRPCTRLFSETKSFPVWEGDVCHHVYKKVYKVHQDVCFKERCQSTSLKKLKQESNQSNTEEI

Chain of Trx-IRDBP-1 fusion protein (His6-tagged thioredoxin fusion of the 1503 bp coding region of the cDNA SEQ ID NO: 44) (chain, as listed by the source): as above
Chain of Thioredoxin (Trx) alone, expressed in E. coli from a pET32 vector [thioredoxin: P0AA25] (P0AA25 whole entry, the tested form may be a part): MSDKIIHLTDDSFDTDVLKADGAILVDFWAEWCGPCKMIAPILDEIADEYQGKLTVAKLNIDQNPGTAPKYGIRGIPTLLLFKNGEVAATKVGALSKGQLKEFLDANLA

Substance | in vitro phosphorylation with [γ-32P] ATP [1] | in vitro phosphorylation with [γ-32P] ATP, SDS-PAGE [2] | in vitro phosphorylation with [γ-32P] ATP, SDS-PAGE [3] | in vitro phosphorylation with [γ-32P] ATP, SDS-PAGE [4] | IRDBP-1-induced IRE transcription [5] | IRDBP-1-induced IRE activity (IRE-mediated transcription) [5]
Akt (endogenous, COS 7 cells) | Akt phosphorylated the RPRAATF substrate of glycogen synthase kinase 3β, used as a positive control | Akt and Erk did not phosphorylate the controls of Trx alone, and the p50 subunit of NFκB | Akt and Erk Trx-IRDBP-1 were capable of phosphorylating Trx-IRDBP-1 | Akt and Erk did not phosphorylate the controls of Trx alone, and the p50 subunit of NFκB | – | –
Erk2 (pUSEamp expression vector, cotransfected) | – | – | – | – | Erk2 decreased IRDBP-1-induced IRE transcription by 45±4% (lane 5 vs. lane 3) | –
Erk (Erk1/2; endogenous, COS 7 cells) | – | Akt and Erk did not phosphorylate the controls of Trx alone, and the p50 subunit of NFκB | Akt and Erk Trx-IRDBP-1 were capable of phosphorylating Trx-IRDBP-1 | Akt and Erk did not phosphorylate the controls of Trx alone, and the p50 subunit of NFκB | – | –
wild-type Akt1 (pUSEamp expression vector, cotransfected) | – | – | – | – | – | Wild-type Akt1 expression, like Akt myr, stimulated IRDBP-1-induced IRE activity to the same extent as the addition of insulin (lane 7 vs. lane 4)

From US20030125296
